Publication PMC9770967, “Native holdup (nHU) to measure binding affinities from cell extracts” (Science Advances, 2022)

B1: full-length SLC16A1: monocarboxylate transporter 1, endogenous full-length prey (protein, UniProt P53985 1-500, looked up)
chain: MPPAVGGPVGYTPPDGGWGWAVVIGAFISIGFSYAFPKSITVFFKEIEGIFHATTSEVSWISSIMLAVMYGGGPISSILVNKYGSRIVMIVGGCLSGCGLIAASFCNTVQQLYVCIGVIGGLGLAFNLNPALTMIGKYFYKRRPLANGLAMAGSPVFLCTLAPLNQVFFGIFGWRGSFLILGGLLLNCCVAGALMRPIGPKPTKAGKDKSKASLEKAGKSGVKKDLHDANTDLIGRHPKQEKRSVFQTINQFLDLTLFTHRGFLLYLSGNVIMFFGLFAPLVFLSSYGKSQHYSSEKSAFLLSILAFVDMVARPSMGLVANTKPIRPRIQYFFAASVVANGVCHMLAPLSTTYVGFCVYAGFFGFAFGWLSSVLFETLMDLVGPQRFSSAVGLVTIVECCPVLLGPPLLGRLNDMYGDYKYTYWACGVVLIISGIYLFIGMGINYRLLAKEQKANEQKKESKEEETSIDVAGKPNEVTKAAESPDQKDTDGGPKEEESPV
modifications: full-length
notes: monocarboxylate transporter 1, endogenous full-length prey
B2: CNBP: Cellular nucleic acid-binding protein (protein, UniProt P62633 2-177, looked up)
CCHC-type zinc finger nucleic …: SSNECFKCGRSGHWARECPTGGGRGRGMRSRGRGGFTSDRGFQFVSSSLPDICYRCGESGHLAKDCDLQEDACYNCGRGGHIAKDCKEPKREREQCCYNCGKPGHLARDCDHADEQKCYSCGEFGHIQKDCTKVKCYRCGETGHVAINCSKTSEVNCYRCGESGHLARECTIEATA

How the values were obtained:
[1] = test system: full-length SNX27; assay: nHU-WB titration, full-length SNX27 bait, total Jurkat extracts; format: binding; settings: partial activity model (Eq. 4)
Protocol: The empty His6-AviTag-MBP-TEV vector was used to produce biotinylated MBP for control experiments. Proteins were coexpressed with BirA biotin ligase (PET21a-BirA, Addgene, no. 20857) in Escherichia coli BL21(DE3) cells. At isopropyl-β-D-thiogalactopyranoside (IPTG) induction (1 mM IPTG at 18°C overnight), 50 μM biotin was added to the media. […] Lysates were frozen at -20°C before further purification steps. Lysates were sonicated and centrifuged for clarification. Expressed proteins were captured on in-house prepacked Ni-IDA (Protino Ni-IDA Resin, Macherey-Nagel, Duren, Germany) columns and were washed with at least 10 column volumes of cold wash buffer [50 mM tris (pH 7.5), 150 mM NaCl, and 2 mM β-mercaptoethanol] before elution with 250 mM imidazole. The Ni elution was collected directly on a preequilibrated amylose column (amylose high flow resin, New England Biolabs, Ipswich, MA). […] The concentration of proteins was determined by their ultraviolet absorption at 280 nm before aliquots were snap-frozen in liquid nitrogen and stored at -80°C. […] To saturate streptavidin resin with biotinylated proteins, 50 μl of streptavidin resin (Streptavidin Sepharose High Performance, Cytiva) was mixed with biotinylated MBP or MBP-PDZ at 40 to 50 μM concentration in 20× resin volume for 60 min. […] Last, resins were washed two times (10 resin volume, holdup buffer). […]

[2] = biological target: SNX27_PDZ; assay: nHU-MS, SNX27_PDZ bait, total SH-SY5Y extracts; format: binding, human
Protocol: The empty His6-AviTag-MBP-TEV vector was used to produce biotinylated MBP for control experiments. Proteins were coexpressed with BirA biotin ligase (PET21a-BirA, Addgene, no. 20857) in Escherichia coli BL21(DE3) cells. At isopropyl-β-D-thiogalactopyranoside (IPTG) induction (1 mM IPTG at 18°C overnight), 50 μM biotin was added to the media. Harvested cells were lysed in a buffer containing 50 mM tris (pH 7.5), 150 to 300 mM NaCl, 50 μM biotin, 2 mM β-mercaptoethanol, cOmplete EDTA-free protease inhibitor cocktail (Roche, Basel, Switzerland), 1% Triton X-100, and trace amount of deoxyribonuclease, ribonuclease, and lysozyme. Lysates were frozen at −20°C before further purification steps. Lysates were sonicated and centrifuged for clarification. Expressed proteins were captured on in-house prepacked Ni-IDA (Protino Ni-IDA Resin, Macherey-Nagel, Duren, Germany) columns and were washed with at least 10 column volumes of cold wash buffer [50 mM tris (pH 7.5), 150 mM NaCl, and 2 mM β-mercaptoethanol] before elution with 250 mM imidazole. The Ni elution was collected directly on a preequilibrated amylose column (amylose high flow resin, New England Biolabs, Ipswich, MA). Amylose column was washed with 5 column volumes of cold wash buffer before fractionated elution in a buffer containing 25 mM Hepes (pH 7.5), 150 mM NaCl, 1 mM TCEP, 10% glycerol, 5 mM maltose, and cOmplete EDTA-free protease inhibitor cocktail. The concentration of proteins was determined by their ultraviolet absorption at 280 nm before aliquots were snap-frozen in liquid nitrogen and stored at −80°C.
For saturating streptavidin resin with biotinylated peptides or biotin, 50 μl of streptavidin resin was mixed with biotin or peptide at 40 to 60 μM concentration in 6 to 6.5 resin volume for 60 min. To saturate streptavidin resin with biotinylated proteins, 50 μl of streptavidin resin (Streptavidin Sepharose High Performance, Cytiva) was mixed with biotinylated MBP or MBP-PDZ at 40 to 50 μM concentration in 20× resin volume for 60 min. After saturation, resins were washed a single time [10 resin volume, holdup buffer: 50 mM tris (pH 7.5), 300 mM NaCl, and 1 mM TCEP, 0.22-μm filtered] and were depleted with biotin (10 resin volume, 10 min, holdup buffer supplemented with 100 μM biotin). Last, resins were washed two times (10 resin volume, holdup buffer).
For single-point nHU experiments carried out at ~10 μM bait concentration, 50 μl of saturated streptavidin resin was mixed with 200 μl of cell lysate (2 mg/ml). Titration experiments were carried out by mixing control and bait-saturated resin and keeping the total resin volume constant; e.g., ~5 μM bait concentration can be achieved by mixing 25 μl of bait-saturated streptavidin resin with 25 μl of control resin and 200 μl of cell lysate (2 mg/ml). Control and bait-saturated resins were prepared in larger amounts, and a serial dilution was prepared with these presaturated resins to achieve different resin ratios.
Unless specified elswhere, the nHU mixture was incubated at 4°C for 2 hours. After the incubation ended, the resin was separated from the supernatant by a brief centrifugation (15 s, 2000 g). Then, half of the supernatant was removed by pipetting without any delay to avoid any resin contamination; e.g., 100 μl of supernatant is collected if 200 μl of cell lysate was used as analyte. Alternatively, the supernatant can be centrifuged an additional time to clarify it further, removing any possible resin contamination. […]

[3] = test system: SNX27_PDZ; assay: AP-MS control pull-down on leftover resin, SNX27_PDZ bait, total SH-SY5Y extracts; format: binding, human; settings: n = 6
Protocol: Leftover beads from nHU-MS experiments were washed three times immediately after the separation of the supernatant [10 resin volume in buffer containing 50 mM tris (pH 8.5), 150 mM NaCl, 1% Triton X-100, 10× cOmplete EDTA-free protease inhibitor cocktail, 2 mM EDTA, and 1 mM TCEP]. Then, the beads were washed two times [10 resin volume buffer containing 50 mM tris (pH 8.5), 150 mM NaCl, and 1 mM TCEP]. Last, captured protein was eluted from the resin in two steps, and the eluted fractions were pooled. For each elution, the beads were incubated for 30 min with three resin volume buffer containing 20 mM tris (pH 8.5), 100 mM NaCl, 500 μM TCEP, and 8 M urea. Between each step, the beads were separated by mild centrifugation, and the supernatant was removed by gentle pipetting.
The nHU samples were precipitated with trichloroacetic acid (TCA) 20% overnight at 4°C and centrifuged at 14,000 rpm for 10 min at 4°C. The protein pellets were washed twice with 1 ml of cold acetone and air-dried. […]
Samples were analyzed using an Ultimate 3000 nano-RSLC coupled in line via a nano-electrospray ionization source, with an LTQ-Orbitrap ELITE mass spectrometer (Thermo Fisher Scientific, San Jose, CA) or with the Orbitrap Exploris 480 mass spectrometer (Thermo Fisher Scientific, Bremen, Germany) equipped with a high field asymmetric ion mobility spectrometry (FAIMS) module. […]

Molecule | f (active fraction) [1] | pKapp_HU_not_filtered ([2]; apparent, Eq. 2, not filtered for significance) | pKapp_significant_binders_HU ([2]; apparent, Eq. 2, significant binders (1 σ, P < 0.05)) | BI_HU ([2]; n = 6) | FC_HU (log2 fold change) ([2]; n = 6) | Ratio_HU ([2]; n = 6) | FC_AP (log2 fold change) [3] | Ratio_AP [3]
B1 | 0.9 | – | – | – | – | – | – | –
B2 | – | 4.74 | 4.74 | 0.3538 | -0.63 | 0.6462 | -0.3792 | 0.7689
